{"source": "paper PMC6063412", "about": "“Development of monoclonal anti-PDGF-CC antibodies as tools for investigating human tissue expression and for blocking PDGF-CC induced PDGFRα signalling in vivo” (PLoS ONE, 2018)", "key": {"[1]": {"target": "T1, human latent full-length PDGF-CC (Homo sapiens, UniProt Q9NRA1)", "T1 construct": "platelet-derived growth factor C, human, latent full-length form with the CUB domain; also called hPCf; latent PDGF-CC", "T1 sequence (Q9NRA1 23-345)": "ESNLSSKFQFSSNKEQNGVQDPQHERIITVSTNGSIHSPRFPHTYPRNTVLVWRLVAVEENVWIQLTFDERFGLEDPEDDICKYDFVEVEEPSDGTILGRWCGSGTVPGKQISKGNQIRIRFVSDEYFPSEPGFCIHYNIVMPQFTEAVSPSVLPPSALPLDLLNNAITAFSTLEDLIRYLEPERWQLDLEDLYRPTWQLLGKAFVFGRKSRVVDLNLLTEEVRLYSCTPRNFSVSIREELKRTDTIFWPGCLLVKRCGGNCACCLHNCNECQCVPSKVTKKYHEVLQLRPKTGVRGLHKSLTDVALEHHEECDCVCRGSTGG", "experiment": "immunoblot; recombinant PDGF proteins run reduced and non-reduced, blotted and probed with murine mAb IgG", "details": "both partners purified"}, "human PDGF-DD [2]": {"target": "T2, human PDGF-DD (Homo sapiens, UniProt Q9GZP0)", "experiment": "immunoblot; recombinant PDGF proteins run reduced and non-reduced, blotted and probed with murine mAb IgG", "details": "both partners purified"}, "[3]": {"target": "T3, recombinant human PDGF-CC core domain protein (activated PDGF-CC, growth factor domain) (human, UniProt Q9NRA1)", "T3 construct": "platelet-derived growth factor C, human, core domain (growth factor domain, GFD) released from the N-terminal CUB domain; also called hPCc; active PDGF-CC", "T3 sequence (Q9NRA1 230-345)": "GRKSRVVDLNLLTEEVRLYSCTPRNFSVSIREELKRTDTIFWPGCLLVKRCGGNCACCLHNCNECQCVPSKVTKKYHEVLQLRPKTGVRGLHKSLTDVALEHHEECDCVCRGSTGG", "experiment": "immunoblot; recombinant PDGF proteins run reduced and non-reduced, blotted and probed with murine mAb IgG", "details": "both partners purified"}, "PDGF-AA [4]": {"target": "T4, PDGF-AA (UniProt P04085)", "T4 construct": "platelet-derived growth factor A chain homodimer", "experiment": "ELISA; 96-well plate coated with PDGF-AA, PDGF-BB, PDGF-CC or PDGF-DD; 6B3 applied (methods: hybridoma supernatant in dilution series), anti-mouse IgG-AP, absorbance at 405 nm", "details": "one partner purified"}, "PDGF-BB [5]": {"target": "T5, PDGF-BB (UniProt P01127)", "T5 construct": "platelet-derived growth factor B chain homodimer", "T5 sequence (P01127 82-190)": "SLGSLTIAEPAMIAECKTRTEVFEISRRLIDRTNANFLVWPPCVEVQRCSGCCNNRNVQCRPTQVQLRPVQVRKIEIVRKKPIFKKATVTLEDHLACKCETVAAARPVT", "experiment": "ELISA; 96-well plate coated with PDGF-AA, PDGF-BB, PDGF-CC or PDGF-DD; 6B3 applied (methods: hybridoma supernatant in dilution series), anti-mouse IgG-AP, absorbance at 405 nm", "details": "one partner purified"}, "[6]": {"target": "T6, endogenous human PDGF-CC in A549 cells and placental tissue (Homo sapiens (endogenous, A549 and …, UniProt Q9NRA1))", "T6 construct": "platelet-derived growth factor C, endogenous; source: endogenous, paraffin-embedded sections of the A549 cell line and human placental tissue", "T6 sequence (Q9NRA1 23-345)": "as the sequence (Q9NRA1 23-345) above", "experiment": "immunostaining of cells or tissue; paraffin-embedded sections of A549 cells and human placenta, citric acid antigen retrieval, 6B3 at 1.5 μg/ml, anti-mouse-HRP and DAB; with or without 1 h pre-incubation of 6B3 with 6.7 X excess PDGF-CC His6 (10 μg/ml)", "details": "one partner purified"}, "PDGF-AA [7]": {"target": "T4, PDGF-AA", "experiment": "ELISA; data not shown; as the 6B3 ELISA on coated PDGF-AA, PDGF-BB, PDGF-CC and PDGF-DD, with other clones", "details": "one partner purified"}, "PDGF-BB [8]": {"target": "T5, PDGF-BB", "experiment": "ELISA; data not shown; as the 6B3 ELISA on coated PDGF-AA, PDGF-BB, PDGF-CC and PDGF-DD, with other clones", "details": "one partner purified"}, "human PDGF-DD [9]": {"target": "T2, human PDGF-DD", "experiment": "ELISA; data not shown; as the 6B3 ELISA on coated PDGF-AA, PDGF-BB, PDGF-CC and PDGF-DD, with other clones", "details": "one partner purified"}}, "data": [{"binder": "monoclonal anti-PDGF-CC antibody 6B3 (antibody, V domains shown, VH CDR1 (Kabat combined with Chothia); VH CDR2; VH CDR3; VL CDR1 (Kabat combined with Chothia); VL CDR2; VL CDR3; Mouse IgG2a, kappa; Only the CDRs are printed; frameworks are not; also called mAb 6B3; clone 6B3; source: mouse hybridoma; culture supernatant, or IgG purified (HiTrap-Protein G)) VH: QVQLQQSGVEVARPGASVKLSCKASGYTFRSYGITWVRQRTGQGLEWIGEIYPRSGKTYYNEKFKGKATLTADTSSSTVYMELRSLTSEDSAVYFCAREGYGYDGGYFDYWGQGTTLTVSS VL: DIVMTQSPSSLAMSVGQKVTMSCKSSQSLLNSRNQKNYLAWYQQKPGQSPKLLVYFASTRESGVPDRFTGSGSGTDFTLTISSVQAEDLAVYYCQQHYSTPLTFGAGTKLELK", "values": [{"measurement": "binding result", "setting": "[1]", "value": "binds"}, {"measurement": "binding result", "setting": "human PDGF-DD [2]", "value": "no binding"}, {"measurement": "binding result", "setting": "[3]", "value": "binds"}, {"measurement": "binding result", "setting": "PDGF-AA [4]", "value": "no binding"}, {"measurement": "binding result", "setting": "PDGF-BB [5]", "value": "no binding"}, {"measurement": "binding result", "setting": "[6]", "value": "binds"}]}, {"binder": "monoclonal anti-PDGF-CC antibody 19C7 (antibody, V domains shown, VH CDR1 (Kabat combined with Chothia); VH CDR2; VH CDR3; VL CDR1 (Kabat combined with Chothia); VL CDR2; VL CDR3; Mouse IgG2a, kappa; CDRs identical to those of 6B3; also called clone 19C7; source: mouse hybridoma; culture supernatant, or IgG purified (HiTrap-Protein G)) VH: QVQLQQSGVEVARPGASVKLSCKASGYTFRSYGITWVRQRTGQGLEWIGEIYPRSGKTYYNEKFKGKATLTADTSSSTVYMELRSLTSEDSAVYFCAREGYGYDGGYFDYWGQGTTLTVSS VL: DIVMTQSPSSLAMSVGQKVTMSCKSSQSLLNSRNQKNYLAWYQQKPGQSPKLLVYFASTRESGVPDRFTGSGSGTDFTLTISSVQAEDLAVYYCQQHYSTPLTFGAGTKLELK", "values": [{"measurement": "binding result", "setting": "PDGF-AA [7]", "value": "no binding"}, {"measurement": "binding result", "setting": "PDGF-BB [8]", "value": "no binding"}, {"measurement": "binding result", "setting": "human PDGF-DD [9]", "value": "no binding"}]}, {"binder": "monoclonal anti-PDGF-CC antibody 11F5 (antibody, V domains shown, VH CDR1 (Kabat combined with Chothia); VH CDR2; VH CDR3; VL CDR1 (Kabat combined with Chothia); VL CDR2; VL CDR3; Mouse IgG2a, kappa; Only the CDRs are printed; frameworks are not; also called clone 11F5; source: mouse hybridoma; culture supernatant, or IgG purified (HiTrap-Protein G)) VH: QVQLQQSGAELARPGASVKLSCKASGYIFISYGISWVKQRTGQGLEWIGEIYPRSGKTYYNEKFKDKAALTADKSSSIAYMELRSLTSEDSAVYFCAREGYGYDGGYFDYWGQGTILTVSS VL: DIVMTQSPSSLAMSVGQKVAVSCKSSQSLLNSSNQKNYLAWYQQKPGQSPKLLVYFASTRDSGVPDRFTGSGSGTDFTLTISSVQAEDLAVYYCQQHYSTPLTFGAGTKLELK", "values": [{"measurement": "binding result", "setting": "PDGF-AA [7]", "value": "no binding"}, {"measurement": "binding result", "setting": "PDGF-BB [8]", "value": "no binding"}, {"measurement": "binding result", "setting": "human PDGF-DD [9]", "value": "no binding"}]}]}
